Results on two molecules are retold here after doi:10.1101/2023.03.14.530545 (bioRxiv, 2023).

The target in data set [1] is CnTps1 ΔIDD (Cryptococcus neoformans var. grubii strain H99 | Candida albicans) (UniProt Q6IVK9). The data set can be described thus: SEC. Background: Size exclusion chromatography separates by hydrodynamic size, large species first.
The data set “cryo-EM structure” concerns the molecule itself. Put plainly: cryo-EM structure.

By stoichiometry N is commonly meant a count of units in the complex or per binding partner.

“CnTps1 ΔIDD (from UniProt Q6IVK9 1-208; Q6IVK9 301-669) (enzyme)”: the stoichiometry N in data set [1] is 4.

B1: 6xHis-CnTps1 (full-length Cryptococcus neoformans trehalose-6-phosphate synthase) (enzyme, UniProt Q6IVK9 1-670, looked up)
chain: MTTMSNDIPNSPTSTSFTGTFSPAATAANTAANARTSDAPSPTTSSSGPKLETSKEQRLIVVSNRLPVTISKDDNGEYHFKMSSGGLVSALSGCKKTMSFTWIGWPGKDIPMQDRETVNRRLLDEYNCYPVYLSDELADSHYNGSFSNSILWPLFHYHPGEMNFDAAHWLAYREANMRFADVVSSLVQAGDMVWVQDYHLMLLPMLLRSMITGESAQGEMVRQELGRVKEGVDDTVVKEVLKMGPGVAQAEDEGVEMLDDVEEEGGEMDVKSSPKRPHYARGMSTFQKQELVAKEKGKEGIRIGFFLHTPFPSSEIYRILPVRREILLGVLQCDLIGFHTYDYARHFLSSCTRILGLETQPNGIEFDGRYCQVGTFPIGIDPNQFIEGLQKESIVKRLRSLEARFEGVKVIIGVDRLDYIKGIPQKLQALETFLTQHPEWIGKVVLVQLAIPSRQDVEEYQDLRACVNELVGRINGRFGTVESVPIHYMHKSVPFEELTAMYALADACLVTSTRDGMNLVAYEYISSQAERHGSMILSEFAGAAQSFNGSLLINPWDVQSTADAINQALTLSPQQRKTNWQKLFNYVSKYTAEAWGVSFVNELNRLSGQRPSGPTGLAGRRKSGSLSRTSSKASIQRRKSSQSGIVTGLGAAAGAAVNWAQAQVQGGSQT
Turning to B1, in the data set “cryo-EM structure”, the “stoichiometry N” value came to 4.
